# Test results taken from patent US20110070610.
# B1: pACSH307 protease (SEQ ID NO:10 tagged TEV protease) (protein)
# chain: MKVILLRDVPKIGKKGEIKEVSDGYARNYLIPRGFAKEYTEGLERAIKHEKEIEKRKKEREREESEKILKELKKRTHVVKVKAGEGGKIFGAVTAATVAEEISKTTGLKLDKRWFKLDKPIKELGEYSLEVSLPGGVKDTIKIRVEREESSSGSSGSSGSSGESLFKGPRDYNPISSTICHLTNESDGHTTSLYGIGFGPFIITNKHLFRRNNGTLLVQSLHGVFKVKNTTTLQQHLIDGRDMIIIRMPKDFPPFPQKLKFREPQREERICLVTTNFQTKSMSSMVSDTSCTFPSSDGIFWKHWIQTKDGQCGSPLVSTRDGFIVGIHSASNFTNTNNYFTSVPKNFMELLTNQEAQQWVSGWRLNADSVLWGGHKVFMVKPEEPFQPVKEATQLMN
# B2: pACSH362 protease (SEQ ID NO:10 tagged HAV18 3C protease) (protein)
# chain: MKVILLRDVPKIGKKGEIKEVSDGYARNYLIPRGFAKEYTEGLERAIKHEKEIEKRKKEREREESEKILKELKKRTHVVKVKAGEGGKIFGAVTAATVAEEISKTTGLKLDKRWFKLDKPIKELGEYSLEVSLPGGVKDTIKIRVEREESSSGSGSGSGSTLEIAGLVRKNLVQFGVGEKNGCVRWVMNALGVKDDWLLVPSHAYKFEKDYEMMEFYFNRGGTYYSISAGNVVIQSLDVGFQDVVLMKVPTIPKFRDITEHFIKKGDVPRALNRLATLVTTVNGTPMLISEGPLKMEEKATYVHKKNDGTTVDLTVDQAWRGKGEGLPGMCGGALVSSNQSIQNAILGIHVAGGNSILVAKLVTQEMFQNIDKKIESQ
# Key:
# [1] = molecular target: T1, pACSH248 fusion protein (S661 peptide with N-terminal SEQ ID NO:19 tag and TEV cleavage site linker)
# T1 chain: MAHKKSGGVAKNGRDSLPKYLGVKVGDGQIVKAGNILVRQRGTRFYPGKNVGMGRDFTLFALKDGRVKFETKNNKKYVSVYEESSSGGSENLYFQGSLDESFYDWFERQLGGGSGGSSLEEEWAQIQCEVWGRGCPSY
# [2] = molecular target: T2, pACSH360 fusion protein (S661 peptide with N-terminal SEQ ID NO:19 tag and HAV18 3C cleavage site linker)
# T2 chain: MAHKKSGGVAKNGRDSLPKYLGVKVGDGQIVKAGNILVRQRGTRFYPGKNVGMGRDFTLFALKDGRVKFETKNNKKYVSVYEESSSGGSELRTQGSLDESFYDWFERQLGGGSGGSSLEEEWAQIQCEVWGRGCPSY
Protein,"cleavage of fusion protein, LC-MS, 8 hours, enzyme to substrate ratio 1:1 [1]","cleavage of fusion protein, LC-MS, 7 hours at 37° C., enzyme to substrate ratio 1:10 or 1:50 [2]"
B1,"after incubation for 8 hours with an enzyme to substrate ration of 1:1, the major part of the S661 peptide was released from the pACSH248 fusion protein",
B2,,A fragment representing the released S661 peptide was observed for both ratios
